From doi:10.1101/674218 (bioRxiv, 2019) come the findings set out here.

B2: recombinant murine cold-inducible RNA-binding protein, His-tagged (rmCIRP-his) (natural protein, mouse, UniProt P60824 1-172, looked up)
chain: MASDEGKLFVGGLSFDTNEQALEQVFSKYGQISEVVVVKDRETQRSRGFGFVTFENIDDAKDAMMAMNGKSVDGRQIRVDQAGKSSDNRSRGYRGGSAGGRGFFRGGRSRGRGFSRGGGDRGYGGGRFESRSGGYGGSRDYYASRSQGGSYGYRSSGGSYRDSYDSYATHNE

The target in assay [1] is T1, recombinant mouse TREM-1-Fc Chimera (mouse, UniProt Q9JKE2 21-202).
T1 sequence (looked up): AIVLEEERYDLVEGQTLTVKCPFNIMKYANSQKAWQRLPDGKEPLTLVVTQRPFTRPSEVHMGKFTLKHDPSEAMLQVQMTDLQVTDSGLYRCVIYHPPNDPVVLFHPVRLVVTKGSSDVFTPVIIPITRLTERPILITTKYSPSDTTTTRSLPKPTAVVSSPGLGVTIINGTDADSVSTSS
In words: SPR. Background: In SPR one partner is held on a chip, and binding of the other changes the refractive index at the surface.

Assay [2] has as its target T2, recombinant murine cold-inducible RNA-binding protein, His-tagged (rmCIRP-his) (mouse), P60824.
T2 chain: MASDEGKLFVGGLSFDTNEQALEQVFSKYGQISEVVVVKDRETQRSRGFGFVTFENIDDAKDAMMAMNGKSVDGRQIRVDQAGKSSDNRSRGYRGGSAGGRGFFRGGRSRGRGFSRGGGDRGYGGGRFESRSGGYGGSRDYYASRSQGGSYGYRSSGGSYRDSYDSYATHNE
In words: SPR. The conditions noted are these: remark: other sources report otherwise.

Assay [3] deals with T3, triggering receptor expressed on myeloid cells-1 (TREM-1) on RAW264.7 macrophages (mouse (endogenous in RAW264.7), UniProt Q9JKE2 21-230).
T3 sequence (looked up): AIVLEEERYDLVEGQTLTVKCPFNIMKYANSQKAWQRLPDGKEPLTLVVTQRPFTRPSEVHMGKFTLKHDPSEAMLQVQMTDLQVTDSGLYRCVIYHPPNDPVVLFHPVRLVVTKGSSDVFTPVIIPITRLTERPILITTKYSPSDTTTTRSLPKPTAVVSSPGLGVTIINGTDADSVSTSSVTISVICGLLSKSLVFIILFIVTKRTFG
In words: FRET or BRET.

Assay [4] addresses B2. In words: SPR.

As usually defined, the Kd is the free concentration of one partner at which half of the binding sites on the other are occupied at equilibrium, for simple one-to-one binding. For RGFFRGG [M3, 7-aa peptide derived from CIRP], in assay [1], the dissociation constant (Kd) is 35.2 µM.

B1: recombinant mouse TREM-1-Fc Chimera, Q9JKE2 21-202 (Fc fusion)
chain: AIVLEEERYDLVEGQTLTVKCPFNIMKYANSQKAWQRLPDGKEPLTLVVTQRPFTRPSEVHMGKFTLKHDPSEAMLQVQMTDLQVTDSGLYRCVIYHPPNDPVVLFHPVRLVVTKGSSDVFTPVIIPITRLTERPILITTKYSPSDTTTTRSLPKPTAVVSSPGLGVTIINGTDADSVSTSS
Regarding B1, the Kd in assay [2] was 117 nM.

On to B2, for which, in assay [3], the “fold increase in FRET units over the negative control CD11b” value was roughly 7 fold.

Turning to LQVTDSGLYRCVIYHPP [LP17, 17 amino acid peptide taken from TREM-1], the equilibrium dissociation constant (Kd) in assay [4] amounted to 48 µM.
